Data on one variant can be found in IntAct's records for PubMed 17962809.

The labels stand for the following.
B1: Serine/threonine-protein kinase D2 (Homo sapiens), Q9BZL6 (parent)
chain: MATAPSYPAGLPGSPGPGSPPPPGGLELQSPPPLLPQIPAPGSGVSFHIQIGLTREFVLLPAASELAHVKQLACSIVDQKFPECGFYGLYDKILLFKHDPTSANLLQLVRSSGDIQEGDLVEVVLSASATFEDFQIRPHALTVHSYRAPAFCDHCGEMLFGLVRQGLKCDGCGLNYHKRCAFSIPNNCSGARKRRLSSTSLASGHSVRLGTSESLPCTAEELSRSTTELLPRRPPSSSSSSSASSYTGRPIELDKMLLSKVKVPHTFLIHSYTRPTVCQACKKLLKGLFRQGLQCKDCKFNCHKRCATRVPNDCLGEALINGDVPMEEATDFSEADKSALMDESEDSGVIPGSHSENALHASEEEEGEGGKAQSSLGYIPLMRVVQSVRHTTRKSSTTLREGWVVHYSNKDTLRKRHYWRLDCKCITLFQNNTTNRYYKEIPLSEILTVESAQNFSLVPPGTNPHCFEIVTANATYFVGEMPGGTPGGPSGQGAEAARGWETAIRQALMPVILQDAPSAPGHAPHRQASLSISVSNSQIQENVDIATVYQIFPDEVLGSGQFGVVYGGKHRKTGRDVAVKVIDKLRFPTKQESQLRNEVAILQSLRHPGIVNLECMFETPEKVFVVMEKLHGDMLEMILSSEKGRLPERLTKFLITQILVALRHLHFKNIVHCDLKPENVLLASADPFPQVKLCDFGFARIIGEKSFRRSVVGTPAYLAPEVLLNQGYNRSLDMWSVGVIMYVSLSGTFPFNEDEDINDQIQNAAFMYPASPWSHISAGAIDLINNLLQVKMRKRYSVDKSLSHPWLQEYQTWLDLRELEGKMGERYITHESDDARWEQFAAEHPLPGSGLPTDRDLGGACPPQDHDMQGLAERISVL
partner: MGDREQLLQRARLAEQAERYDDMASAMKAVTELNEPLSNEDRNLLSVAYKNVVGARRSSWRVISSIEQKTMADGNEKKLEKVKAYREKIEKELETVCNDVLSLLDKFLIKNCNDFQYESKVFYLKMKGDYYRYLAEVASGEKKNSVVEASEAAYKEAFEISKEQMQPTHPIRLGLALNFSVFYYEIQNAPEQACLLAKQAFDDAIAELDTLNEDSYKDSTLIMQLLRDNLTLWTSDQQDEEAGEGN

The variants in this assay derive from B1. The note with it: with 1433f_human YWHAH.
S244E;S706E;S710E: the “effect of a mutation on the interaction” value is “disrupting interaction”.
